Assay [1] concerns the target T1, mouse BCMA-MFC (BCMA with C-terminal mFc tag) (mouse).
T1 construct: Tested at a single concentration of 30 nM; also called mBCMA.mFc
T1 chain: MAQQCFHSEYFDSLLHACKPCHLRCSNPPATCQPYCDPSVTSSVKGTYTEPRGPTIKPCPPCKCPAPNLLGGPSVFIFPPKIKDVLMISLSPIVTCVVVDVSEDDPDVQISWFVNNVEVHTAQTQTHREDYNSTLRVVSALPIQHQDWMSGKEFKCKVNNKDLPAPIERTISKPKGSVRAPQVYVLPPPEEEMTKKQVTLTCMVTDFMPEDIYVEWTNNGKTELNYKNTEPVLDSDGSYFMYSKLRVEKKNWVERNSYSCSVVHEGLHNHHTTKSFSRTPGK
Nature of the assay: SPR Biacore, 25 C, mAb captured via anti-hFc. As for the experimental part:
(§1) The CM5 Biacore sensor surface was derivatized by amine coupling with a monoclonal mouse anti-human Fc antibody (GE, #BR-1008-39) to capture purified anti-BCMA mAbs and anti-BCMA×anti-CD3 bispecific mAbs. All Biacore binding studies were performed in a buffer composed of 0.01M HEPES pH 7.4, 0.15M NaCl, 3 mM EDTA, 0.05% v/v Surfactant P20 (HBS-ET running buffer). […] Antigen samples were then injected over the anti-BCMA and anti-BCMA×anti-CD3 bispecific mAbs captured surfaces at a flow rate of 30 μL/minute. Antibody-reagent association was monitored for 5 minutes while dissociation in HBS-ET running buffer was monitored for 10 minutes. All of the binding kinetics experiments were performed at 25° C. Kinetic association (kₐ) and dissociation (kd) rate constants were determined by fitting the real-time sensorgrams to a 1:1 binding model using Scrubber 2.0c curve fitting software. Binding dissociation equilibrium constants (KD) and dissociative half-lives (t1/2) were calculated from the kinetic rate constants as: […]

Assay [2] has as its target T2, monkey BCMA-MMH (monkey BCMA with C-terminal myc-myc-hexahistidine tag) (monkey).
T2 construct: Monomeric antigen; also called mfBCMA.mmh
Nature of the assay: SPR Biacore, 25 C, mAb captured via anti-hFc. As for the experimental part:
as §1
(In general: In SPR one partner is held on a chip, and binding of the other changes the refractive index at the surface.)

Assay [3] has as its target T3, human BCMA-MMH (extracellular domain of human BCMA with C-terminal myc-myc-hexahistidine tag) (human).
T3 construct: Monomeric antigen; also called hBCMA.mmh; hBCMA.mmH
T3 chain: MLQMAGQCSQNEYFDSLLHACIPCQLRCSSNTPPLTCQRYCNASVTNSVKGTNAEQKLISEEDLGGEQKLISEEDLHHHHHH
Briefly: SPR Biacore, 25 C, mAb captured via anti-hFc. As for the experimental part: as §1

In assay [4] the target is T4, human CD3 on cells (Jurkat cells, primary human CD8+ T cells) (human, UniProt P07766 23-207; P04234 22-171; P20963 22-164; P09693 23-182).
T4 construct: CD3 complex as part of the TCR on T cells; also called hCD3; Jurkat-hCD3
T4 sequence (P07766 23-207 limits assumed, chain 1 of 4): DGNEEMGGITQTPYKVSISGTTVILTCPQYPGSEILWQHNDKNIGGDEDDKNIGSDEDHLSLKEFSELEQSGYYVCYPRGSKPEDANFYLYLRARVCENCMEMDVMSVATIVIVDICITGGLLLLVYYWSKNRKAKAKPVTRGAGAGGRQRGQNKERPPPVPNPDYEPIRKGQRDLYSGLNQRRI
T4 sequence (P04234 22-171 limits assumed, chain 2 of 4): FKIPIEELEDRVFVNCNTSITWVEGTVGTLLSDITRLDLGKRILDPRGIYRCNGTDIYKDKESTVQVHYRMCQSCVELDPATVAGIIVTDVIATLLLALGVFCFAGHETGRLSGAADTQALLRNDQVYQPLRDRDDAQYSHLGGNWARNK
T4 sequence (P20963 22-164 limits assumed, chain 3 of 4): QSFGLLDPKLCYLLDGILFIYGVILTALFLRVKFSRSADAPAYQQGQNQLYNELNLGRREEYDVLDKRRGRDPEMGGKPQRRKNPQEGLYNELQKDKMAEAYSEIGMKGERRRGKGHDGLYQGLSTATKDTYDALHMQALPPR
T4 sequence (P09693 23-182 limits assumed, chain 4 of 4): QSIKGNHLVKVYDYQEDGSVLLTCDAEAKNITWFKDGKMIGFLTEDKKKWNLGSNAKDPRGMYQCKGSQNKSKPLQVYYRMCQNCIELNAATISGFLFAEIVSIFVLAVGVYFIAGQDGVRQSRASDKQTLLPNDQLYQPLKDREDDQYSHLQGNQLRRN
Nature of the assay: flow cytometry, primary human CD8+ T cells, median EC50, n=1. As for the experimental part:
Flow cytometric analysis was utilized to determine binding of BCMA×CD3 bispecific antibodies to human and cynomolgus CD3 (Jurkat cells, mfCD3 engineered Jurkat cells, primary human CD8+ and cynomolgus CD8+ T cells). Briefly, 1e05 cells/well were incubated in the presence of FACS wash with block (PBS+1% filtered FBS+5% mouse serum) with a serial dilution of BCMA×CD3 and control antibodies for 30 minutes on ice. After incubation, the cells were washed twice with cold FACS wash (PBS+1% filtered FBS) and bound antibody was detected by incubating with Alexa647-conjugated anti-human secondary antibody on ice for an additional 30 minutes. Wells containing no antibody or secondary only were used as a control. For the detection of monkey and human T cells, a cocktail of human and cynomolgus cross-reactive antibodies to CD4, CD8 and CD16 was added to the anti-human secondary. After incubation, cells were washed, re-suspended in 200 μL cold PBS containing 1% filtered FBS and analyzed by flow cytometry on a BD FACS Canto II. Cells were gated by FSC-H by FSC-A to select singlet events, followed by side and forward scatters to select for live events. For monkey T cells, additional gating on CD8+/CD16-cells was performed.
EC50 values for FACS binding were calculated using 4-parameter non-linear regression analysis in Prism software.

The target of assay [5] is T5, human BCMA on the surface of cell lines (NCI-H929, MM.1S, OPM-2, RPMI-8226, Daudi, Raji, MOLP-8, U266) (human, UniProt Q02223 1-184).
T5 construct: Endogenous BCMA of human myeloma and lymphoma cell lines; also called TNFRSF17; CD269
T5 sequence: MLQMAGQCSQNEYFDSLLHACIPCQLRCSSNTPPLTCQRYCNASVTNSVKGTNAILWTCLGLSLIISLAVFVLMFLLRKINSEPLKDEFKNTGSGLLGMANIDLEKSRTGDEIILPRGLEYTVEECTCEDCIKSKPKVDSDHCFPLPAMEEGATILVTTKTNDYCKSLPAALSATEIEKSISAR
Briefly: flow cytometry, Alexa647 conjugate on OPM-2 cells. As for the experimental part: (§2) Cells were then washed and fixed for 25 mins at 4° C. using a 50% solution of BD Cytofix (BD, Cat #554655) diluted in PBS. […] After gating for live cells and single cells, the mean fluorescent intensity (MFI) was determined, and MFI values were plotted in Graphpad Prism using a four-parameter logistic equation over a 10-point response curve to calculate EC₅₀s. The zero condition for each dose-response curve is also included in the analysis as a continuation of the two-fold serial dilution and is represented as the lowest dose.
(A flow cytometer gives signals particle by particle.)

Assay [6] has as its target T5, human BCMA on the surface of cell lines …. Nature of the assay: flow cytometry, Alexa647 conjugate on RPMI-8226 cells. As for the experimental part:
as §2

For assay [7] the target is unchanged. Nature of the assay: flow cytometry, Alexa647 conjugate on Daudi cells. As for the experimental part:
as §2

The target is the same in assay [8]. Briefly: flow cytometry, Alexa647 conjugate on Raji cells. As for the experimental part:
as §2

B1: bsAb25441D bispecific antibody (REGN5458), anti-BCMA x anti-CD3 (bispecific antibody, human IgG4 S228P, kappa)
heavy 1: EVQLVESGGGLVQPGGSLRLSCAASGFTFSNFWMTWVRQAPGKGLEWVANMNQDGSEKYYVDSVKGRFTISRDNAKSSLYLQMNSLRAEDTAVYYCARDREYCISTSCYDDFDYWGQGTLVTVSSASTKGPSVFPLAPCSRSTSESTAALGCLVKDYFPEPVTVSWNSGALTSGVHTFPAVLQSSGLYSLSSVVTVPSSSLGTKTYTCNVDHKPSNTKVDKRVESKYGPPCPPCPAPPVAGPSVFLFPPKPKDTLMISRTPEVTCVVVDVSQEDPEVQFNWYVDGVEVHNAKTKPREEQFNSTYRVVSVLTVLHQDWLNGKEYKCKVSNKGLPSSIEKTISKAKGQPREPQVYTLPPSQEEMTKNQVSLTCLVKGFYPSDIAVEWESNGQPENNYKTTPPVLDSDGSFFLYSRLTVDKSRWQEGNVFSCSVMHEALHNHYTQKSLSLSLGK
heavy 2: EVQLVESGGGLVQPGRSLRLSCAASGFTFDDYSMHWVRQAPGKGLEWVSGISWNSGSKGYADSVKGRFTISRDNAKNSLYLQMNSLRAEDTALYYCAKYGSGYGKFYHYGLDVWGQGTTVTVSSASTKGPSVFPLAPCSRSTSESTAALGCLVKDYFPEPVTVSWNSGALTSGVHTFPAVLQSSGLYSLSSVVTVPSSSLGTKTYTCNVDHKPSNTKVDKRVESKYGPPCPPCPAPPVAGPSVFLFPPKPKDTLMISRTPEVTCVVVDVSQEDPEVQFNWYVDGVEVHNAKTKPREEQFNSTYRVVSVLTVLHQDWLNGKEYKCKVSNKGLPSSIEKTISKAKGQPREPQVYTLPPSQEEMTKNQVSLTCLVKGFYPSDIAVEWESNGQPENNYKTTPPVLDSDGSFFLYSRLTVDKSRWQEGNVFSCSVMHEALHNRFTQKSLSLSPGK
light: not shown
notes: Anti-BCMA arm from mAb21581, anti-CD3 arm and common light chain from mAb7221G; also called bsAb25441D9; mAb25441D
Consider B1, for which, in assay [1], the “30 nM mBCMA.mFc Bind (RU)” value turned out to be 2.7 RU and the binding result is given as “no binding (tested: 30 nM)”. Moreover, in assay [2], the “90 nM mfBCMA.mmh Bind (RU)” value amounted to 14.8 RU; the Kd (as a rule, the free concentration of one partner at which half of the binding sites on the other are occupied at equilibrium, for simple one-to-one binding) was determined as 49.9 nM; the t1/2 was 1.3 min. In addition, in assay [3], the “90 nM hBCMA.mmh Bind (RU)” value came to 19.9 RU, the dissociation constant Kd came to 1.06 nM and the t1/2 was found to be 13.2 min. For the same molecule, the EC50 (as a rule, the concentration that produces a half-maximal response) in assay [4] worked out at 32 nM.

B2: bsAb25442D bispecific antibody (REGN5459), anti-BCMA x anti-CD3 (bispecific antibody, human IgG4 S228P, kappa)
heavy 1: EVQLVESGGGLVQPGGSLRLSCAASGFTFSNFWMTWVRQAPGKGLEWVANMNQDGSEKYYVDSVKGRFTISRDNAKSSLYLQMNSLRAEDTAVYYCARDREYCISTSCYDDFDYWGQGTLVTVSSASTKGPSVFPLAPCSRSTSESTAALGCLVKDYFPEPVTVSWNSGALTSGVHTFPAVLQSSGLYSLSSVVTVPSSSLGTKTYTCNVDHKPSNTKVDKRVESKYGPPCPPCPAPPVAGPSVFLFPPKPKDTLMISRTPEVTCVVVDVSQEDPEVQFNWYVDGVEVHNAKTKPREEQFNSTYRVVSVLTVLHQDWLNGKEYKCKVSNKGLPSSIEKTISKAKGQPREPQVYTLPPSQEEMTKNQVSLTCLVKGFYPSDIAVEWESNGQPENNYKTTPPVLDSDGSFFLYSRLTVDKSRWQEGNVFSCSVMHEALHNHYTQKSLSLSLGK
heavy 2: EVQLVESGGGLVQPGRSLRLSCAASGFTFDDYSMHWVRQAPGKGLEWVSGISWNSGSIGYADSVKGRFTISRDNAKNSLYLQMNSLRAEDTALYYCAKYGSGYGKFYYYGMDVWGQGTTVTVSSASTKGPSVFPLAPCSRSTSESTAALGCLVKDYFPEPVTVSWNSGALTSGVHTFPAVLQSSGLYSLSSVVTVPSSSLGTKTYTCNVDHKPSNTKVDKRVESKYGPPCPPCPAPPVAGPSVFLFPPKPKDTLMISRTPEVTCVVVDVSQEDPEVQFNWYVDGVEVHNAKTKPREEQFNSTYRVVSVLTVLHQDWLNGKEYKCKVSNKGLPSSIEKTISKAKGQPREPQVYTLPPSQEEMTKNQVSLTCLVKGFYPSDIAVEWESNGQPENNYKTTPPVLDSDGSFFLYSRLTVDKSRWQEGNVFSCSVMHEALHNRFTQKSLSLSPGK
light: not shown
notes: Anti-BCMA arm from mAb21581, anti-CD3 arm and common light chain from mAb7221G20; also called mAb25442D; mAb25442D-A647
As to B2, in assay [5], the EC50 amounted to 57 nM and the “S/N (ratio of mAb25442D-A647 MFI to Isotype-A647 MFI)” value was 19. In assay [1], the “30 nM mBCMA.mFc Bind (RU)” value stood at 2.4 RU and the binding result is given as “no binding (tested: 30 nM)”. Besides, in assay [2], the “90 nM mfBCMA.mmh Bind (RU)” value came out at 12.7 RU; the Kd was found to be 38.8 nM; the koff – broadly, the rate constant with which the complex falls apart – stood at 0.00864 s⁻¹; the kon (commonly a measure of how fast the partners come together) stood at 223000 M⁻¹ s⁻¹. Also, the t1/2 in assay [2] is 1.3 min. In assay [3], the “90 nM hBCMA.mmh Bind (RU)” value was determined as 17 RU, binding was characterised by a dissociation constant (Kd) of 1.38 nM, the off-rate (koff) worked out at 0.00101 s⁻¹ and the kon came out at 730000 M⁻¹ s⁻¹. In assay [3], this molecule yielded a t1/2 of 11.5 min. In assay [6], the midpoint of the response, the EC50, lay at 27 nM and the “S/N (ratio of mAb25442D-A647 MFI to Isotype-A647 MFI)” value turned out to be 9. Moreover, the “S/N (ratio of mAb25442D-A647 MFI to Isotype-A647 MFI)” value in assay [7] was 3. This molecule also came in with a concentration giving a half-maximal response (EC50) in assay [4] of 4710 nM. For the same molecule, the “S/N (ratio of mAb25442D-A647 MFI to Isotype-A647 MFI)” value in assay [8] was found to be 2.

The record behind these values is patent US20210206865A1 (Regeneron, published 2021).
